Measurements taken from patent CN115521375A (INST PASTEUR SHANGHAI CAS, dated 2022).

B1: 单抗3H3 (antibody, V domains shown)
VH: QVQLQQPGAELVRPGASVKLSCKASGYSFTRFWMNWVKQRPGQGLEWIGMIHPSDSETRLNQKFKDKATLTVDKSSTTAYMQLSSPTSEDSAVYYCARKDYDYDAWFAYWGQGTLVTVSA
VL: DIVLTQSPASLAVSLGQRATISCRASKSVSASVYSYMHWYQQKPGQPPKLLIYLASSLESGVPARFSGSGSGTDFTLNIHPVEEEDAATYYCHHSRELPPAFGGGTKLEIKR
notes: also called 抗体3H3
B2: 单抗5G2 (antibody)
heavy: EVLLQQSGPELVKPGASVKIPCKASGYTFTDYNMDWVKQSHGKSLEWIGDINPNSGFIIYNQKFKGKASLTVDKSSSTAYMELRSLTSEDTAVYYCAREGYGNNFDYWGQGTTLSVSSAKTTPPSVYPLAPGCGDTTGSSVTLGCLVKGYFPESVTVTWNSGSLSSSVHTFPALLQSGLYTMSSSVTVPSSTWPSQTVTCSVAHPASSTTVDKKLEPSGPISTINPCPPCKECHKCPAPNLEGGPSVFIFPPNIKDVLMISLTPKVTCVVVDVSEDDPDVQISWFVNNVEVHTAQTQTHREDYNSTIRVVSTLPIQHQDWMSGKEFKCKVNNKDLPSPIERTISKIKGLVRAPQVYILPPPAEQLSRKDVSLTCLVVGFNPGDISVEWTSNGHTEENYKDTAPVLDSDGSYFIYSKLNMKTSKWEKTDSFSCNVRHEGLKNYYLKKTISRSPGK
light: DILLTQSPTILSVSPGERVSFSCRASQSIGTSIHWYQQRTKGSPRLLIKYASESISGIPSRFSGSGSGTDFTLSINSVESEDIGDYYCQQSYSWPTTFGAGTKLELK
notes: also called 抗体5G2

Experiments:
[1] = molecular target: T1, SARS-CoV-2原型株RBD蛋白 (SARS-CoV-2, UniProt P0DTC2 320-550); assay: ELISA, coated antigen
[2] = molecular target: T2, SARS-CoV-2原型株NTD蛋白 (SARS-CoV-2, UniProt P0DTC2 16-294); assay: ELISA, coated antigen
T2 construct: range 16-294

[3] = molecular target: SARS-CoV-2原型株(Wt)假病毒的S蛋白 (SARS-CoV-2, UniProt P0DTC2 14-1273); assay: cell-based or functional assay
[4] = molecular target: T1, SARS-CoV-2原型株RBD蛋白; assay: BLI, prototype RBD on the sensor, antibody in solution

Binder | binding result [1] | binding result [2] | 中和IC50, 假病毒中和试验 [3] [µg/mL] | Kd [4] [pM] | 半数抑制浓度(IC50), 假病毒中和试验 [3] [µg/mL]
B1 | no binding | no binding | 0.083 | – | –
B2 | – | – | – | < 1 | 0.293
